Target: Fas receptor on primary mouse thyroid follicular cells (TFC) (mouse) (UniProt P25446)
Assay: cell-based or functional assay

Sequence of UniProt P25446 (P25446 22-327): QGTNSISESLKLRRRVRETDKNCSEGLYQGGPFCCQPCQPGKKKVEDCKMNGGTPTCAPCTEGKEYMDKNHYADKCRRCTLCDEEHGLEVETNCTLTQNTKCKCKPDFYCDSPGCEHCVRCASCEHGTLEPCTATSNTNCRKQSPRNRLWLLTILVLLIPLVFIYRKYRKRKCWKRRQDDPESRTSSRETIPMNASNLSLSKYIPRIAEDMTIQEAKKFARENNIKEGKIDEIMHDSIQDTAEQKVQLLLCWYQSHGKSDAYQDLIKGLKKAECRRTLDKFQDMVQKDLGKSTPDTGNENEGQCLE

percentage of proliferation increase of anti-Fas versus control cultures ([3H] thymidine), 48h: 37% | percentage of proliferation increase of anti-Fas versus control cultures ([3H] thymidine), 72h: 49% | percentage of proliferation increase of anti-Fas versus control cultures ([3H] thymidine), 96h: 61% | proliferation of anti-Fas treated TFC ([3H] thymidine, mean cpm of six wells): 392 to 1510 cpm
Substance: clone Jo2 anti-Fas antibody
